Measured values from IntAct's records for PubMed 15962010.

Molecular target: sumf1_human SUMF1 (UniProt Q8NBK3)
Sequence (Q8NBK3 whole entry): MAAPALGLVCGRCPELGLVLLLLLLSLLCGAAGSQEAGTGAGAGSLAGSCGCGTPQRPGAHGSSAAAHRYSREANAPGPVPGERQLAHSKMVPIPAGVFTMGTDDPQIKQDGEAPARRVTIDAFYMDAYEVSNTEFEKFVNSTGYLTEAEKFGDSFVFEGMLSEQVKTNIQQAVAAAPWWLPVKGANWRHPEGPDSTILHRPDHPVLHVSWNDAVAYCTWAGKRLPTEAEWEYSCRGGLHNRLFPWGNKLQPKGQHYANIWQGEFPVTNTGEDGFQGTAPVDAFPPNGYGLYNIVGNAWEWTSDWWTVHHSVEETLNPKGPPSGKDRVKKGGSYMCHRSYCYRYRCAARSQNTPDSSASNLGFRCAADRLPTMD

effect of a mutation on the interaction: disrupting interaction strength
Substance: Inactive C-alpha-formylglycine-generating enzyme 2 (Homo sapiens), Q8NBJ7 C156A;C290A
